Measurements reported in PMC2572730, “Structural Basis for the Recognition of Histone H4 by the Histone-Chaperone RbAp46” (Structure(London, England:1993), 2008).

B1: E356Q + D357N + E359Q + D360N: RbAp46 mutated in the charged PP loop (protein, UniProt Q16576 2-425, looked up, variant E356Q D357N E359Q D360N)
Histone-binding protein RBBP7: ASKEMFEDTVEERVINEEYKIWKKNTPFLYDLVMTHALQWPSLTVQWLPEVTKPEGKDYALHWLVLGTHTSDEQNHLVVARVHIPNDDAQFDASHCDSDKGEFGGFGSVTGKIECEIKINHEGEVNRARYMPQNPHIIATKTPSSDVLVFDYTKHPAKPDPSGECNPDLRLRGHQKEGYGLSWNSNLSGHLLSASDDHTVCLWDINAGPKEGKIVDAKAIFTGHSAVVEDVAWHLLHESLFGSVADDQKLMIWDTRSNTTSKPSHLVDAHTAEVNCLSFNPYSEFILATGSADKTVALWDLRNLKLKLHTFESHKDEIFQVHWSPHNETILASSGTDRRLNVWDLSKIGEEQSAQNAQNGPPELLFIHGGHTAKISDFSWNPNEPWVICSVSEDNIMQIWQMAENIYNDEESDVTTSELEGQGS
B2: L30Y: RbAp46 mutated in the hydrophobic surface of helix 1 (protein)
chain: MASKEMFEDTVEERVINEEYKIWKKNTPFYYDLVMTHALQWPSLTVQWLPEVTKPEGKDYALHWLVLGTHTSDEQNHLVVARVHIPNDDAQFDASHCDSDKGEFGGFGSVTGKIECEIKINHEGEVNRARYMPQNPHIIATKTPSSDVLVFDYTKHPAKPDPSGECNPDLRLRGHQKEGYGLSWNSNLSGHLLSASDDHTVCLWDINAGPKEGKIVDAKAIFTGHSAVVEDVAWHLLHESLFGSVADDQKLMIWDTRSNTTSKPSHLVDAHTAEVNCLSFNPYSEFILATGSADKTVALWDLRNLKLKLHTFESHKDEIFQVHWSPHNETILASSGTDRRLNVWDLSKIGEEQSAEDAEDGPPELLFIHGGHTAKISDFSWNPNEPWVICSVSEDNIMQIWQMAENIYNDE
modifications: 35S-labeled
notes: RbAp46 mutated in the hydrophobic surface of helix 1

Tested on: GST-histone H4 1–48
Experiment: Pull-down of 35S-labeled RbAp46 mutants with GST-histone H4 1–48
Format: binding
Conditions: autoradiogram, 300 mM NaCl, 20 mM Tris pH 8.0, 5 mM DTT, 0.1% (v/v) NP-40
From the text: Figure 2 Histone H4 Recognition by the RbAp46-Binding Pocket (A) Electrostatic surface potential of RbAp46 contoured and color coded at −91 kT (red) and +91 kT (blue). […] The histone H4 peptide is shown as a stick model. The histone H4-binding pocket in RbAp46 is mainly formed by the negatively charged PP loop (which terminates in Pro-362 and Pro-363) and a hydrophobic surface on the N-terminal α helix (helix 1). The interaction of histone H4 residues (Gln-27, Lys-31, Ile-34, Arg-35, Arg-36, Leu-37, Arg-39, and Arg-40) is shown. (B) Detailed view showing the interactions of the hydrophobic Ile-34 and Leu-37 histone H4 residues with Phe-29 and Leu-30 in helix 1 of RbAp46, as well as the positively charged Arg-36, Arg-39, and Arg-40 histone H4 residues with the backbone carbonyl groups in the PP loop and a cluster of acidic residues (Glu-356, Asp-357, and Asp-360) in RbAp46. […] In each experiment, the input lane contains 30% of the ^35S-labeled RbAp46 protein used in each of the pull-down assays. The experiments were carried out in 300 mM NaCl, 20 mM Tris (pH 8.0), 5 mM DTT, and 0.1% (v/v) NP-40.
Recombinant histone H4 and RbAp46 proteins were expressed and purified as described previously ([Verreault et al., 1998; Berger et al., 2004]). Detailed procedures for the generation of the RbAp46/histone H4 peptide and recombinant histone H4 complexes can be found in the Supplemental Data. […]

Row | Molecule | Effect of RbAp46 mutation on interaction with histone H4
1 | B1 | disrupt the interaction with histone H4
2 | B2 | disrupt the interaction with histone H4
